Laboratory results from PMC5352116, “Quinacrine induces apoptosis in cancer cells by forming a functional bridge between TRAIL-DR5 complex and modulating the mitochondrial intrinsic cascade” (Oncotarget, 2016).

Molecular target: T1, Death Receptor 5 (DR5) (human (endogenous in MCF-10A-Tr), UniProt O14763 56-440)
T1 construct: Death receptor 5 (DR5, TRAIL-R2/Killer), endogenous in MCF-10A-Tr cells (derived from the human breast epithelial line MCF-10A); precipitated with an anti-DR5 antibody; also called TRAIL-R2; Killer; source: endogenous, MCF-10A-Tr cells (on cells; RIPA lysate)
Assay: co-IP; DISC analysis: MCF-10A-Tr cells untreated or treated with QC, TRAIL or TRAIL (10 ng/mL, 3 h) then QC (2.5 uM, 48 h); RIPA lysate, pre-cleared with sepharose-4B beads, immunoprecipitated with anti-DR5 antibody at 4°C overnight; western blot
Settings: partners not purified

B1: Fas-Associated protein with Death Domain (FADD) (natural protein, human (endogenous in MCF-10A-Tr), UniProt Q13158 1-208, looked up)
chain: MDPFLVLLHSVSSSLSSSELTELKFLCLGRVGKRKLERVQSGLDLFSMLLEQNDLEPGHTELLRELLASLRRHDLLRRVDDFEAGAAAGAAPGEEDLCAAFNVICDNVGKDWRRLARQLKVSDTKIDSIEDRYPRNLTERVRESLRIWKNTEKENATVAHLVGALRSCQMNLVADLVQEVQQARDLQNRSGAMSPMSWNSDASTSEAS
notes: FADD, adaptor protein of the DISC, endogenous in MCF-10A-Tr cells; source: endogenous, MCF-10A-Tr lysate
- fold level in the DISC (anti-DR5 immunoprecipitate), TRAIL+QC treated against untreated cells: 8 fold
